Where a SMILES comes first, the peptide text is derived from it. Where no end group is shown, it is not given here.
Biological target: T1, human programmed death 1 (hPD-1), extracellular region (amino acids 34-150) (human, UniProt Q15116 34-150)
T1 construct: extracellular region of human PD-1, amino acids 34-150, cloned into pET28a between NcoI and NdeI sites; purification was by cation exchange and gel filtration; also called CD279
Assay: SPR; Biacore T200; hPD-1 immobilised on a CM5 chip by amine coupling (5000 RU); peptides or hPD-L1 injected 90 s, dissociation 120 s; PBS-P buffer pH 7.4, 25°C, 30 μl/min; steady-state model
Settings: both partners purified

T1 sequence (Q15116 34-150): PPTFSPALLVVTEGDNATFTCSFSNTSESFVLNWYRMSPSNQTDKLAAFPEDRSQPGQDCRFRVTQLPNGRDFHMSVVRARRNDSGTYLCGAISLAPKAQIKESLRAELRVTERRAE

Molecule	Kd
GNWDYNSQRAQLYNQ (de novo designed peptide with anchor residues Y56, R113, A121, D122 and Y123 of hPD-L1; source: synthetic peptide (Fmoc solid-phase synthesis)) [Ar5Y_4]	1.38 µM
FNWDYSWKSERLKEAYDL (de novo designed peptide with anchor residues Y56, R113, A121, D122 and Y123 of hPD-L1; source: synthetic peptide (Fmoc solid-phase synthesis)) [Ar5Y_1]	3.39 µM
FNWDYSLEELREKAKYK (de novo designed peptide with anchor residues Y56, R113, A121, D122 and Y123 of hPD-L1; source: synthetic peptide (Fmoc solid-phase synthesis)) [Ar5Y_2]	3.14 µM
TEKDYRHGNIRMKLAYDL (de novo designed peptide with anchor residues Y56, R113, A121, D122 and Y123 of hPD-L1; source: synthetic peptide (Fmoc solid-phase synthesis)) [Ar5Y_3]	3.13 µM

Biological target: T1, human programmed death 1 (hPD-1), …
Assay: as above
Settings: both partners purified
Remark: another data set of the same source

Molecule	Kd
GNWAYNSQRAQLYNQ (numbers count on the peptide itself; source: synthetic peptide (Fmoc solid-phase synthesis)) [Ar5Y_4 mutant D4A]	18.9 µM
GNWDYNSQAAQLYNQ (numbers count on the peptide itself; source: synthetic peptide (Fmoc solid-phase synthesis)) [Ar5Y_4 mutant R9A]	21.2 µM
GNADYNSQRAQLYNQ (numbers count on the peptide itself; source: synthetic peptide (Fmoc solid-phase synthesis)) [Ar5Y_4 mutant W3A]	8.08 µM
GNWDANSQRAQLYNQ (numbers count on the peptide itself; source: synthetic peptide (Fmoc solid-phase synthesis)) [Ar5Y_4 mutant Y5A]	20.2 µM
GNWDYNSQRAQLANQ (numbers count on the peptide itself; source: synthetic peptide (Fmoc solid-phase synthesis)) [Ar5Y_4 mutant Y13A]	10.2 µM

Biological target: T2, hPD-1 (Homo sapiens, UniProt Q15116)
T2 construct: extracellular region of hPD-1 (amino acids 34–150); made in house; host or cells: E. coli BL21 (DE3)
T2 sequence (Q15116 34-150): as above
Assay: SPR direct binding assay, hPD-1 immobilized on CM5 sensor chip
Settings: steady-state model, PBS-P buffer pH 7.4, 25°C, mean ± SD from three independent experiments
Procedure: The purified active hPD-1 was diluted in 10 mM sodium acetate buffer (pH 4.5) to the final concentration of 50 μg/ml. The diluted hPD-1 was immobilized on a CM5 sensor chip by amino coupling reagent kit, and the immobilization level was 5000 response unit (RU). Binding experiments were performed in PBS-P buffer (8 mM Na2HPO4, 2 mM KH2PO4, 137 mM NaCl, 2.7 mM KCl, 0.005% surfactant P20, pH 7.4) at 25°C with a flow rate of 30 μl/min. […] RU values were collected and all the experimental data was globally analyzed by a steady-state model within Biacore T200 Evaluation software, version 2.0.

Molecule	Kd
N[C@@H](Cc1c[nH]c2ccccc12)C(=O)N[C@@H](CC(=O)O)C(=O)N[C@@H](Cc1ccc(O)cc1)C(=O)N[C@@H](CC(=O)O)C(=O)O [Ar3_1, WDYD] (H-WDYD-OH)	22.4 ± 0.34 µM
GNWDANSQRAQLYNQ [Peptide Y5A]	20.1 ± 0.98 µM

Biological target: T1, human programmed death 1 (hPD-1), …
Assay: SPR; Biacore T200; hPD-1 immobilised on a CM5 chip by amine coupling (5000 RU); peptides or hPD-L1 injected 90 s, dissociation 120 s; PBS-P buffer pH 7.4, 25°C, 30 μl/min; steady-state model
Settings: both partners purified
Remark: another data set of the same source

Molecule	Kd
GIDYEERWK (peptide designed with anchor residues R113, A121, D122 and Y123 of hPD-L1; source: synthetic peptide (Fmoc solid-phase synthesis)) [Ar4_1]	28.3 µM
LDYDGRLSQ (peptide designed with anchor residues R113, A121, D122 and Y123 of hPD-L1; source: synthetic peptide (Fmoc solid-phase synthesis)) [Ar4_2]	83.9 µM
LDYGDKREGQMAE (peptide designed with anchor residues R113, M115, A121, D122 and Y123 of hPD-L1; source: synthetic peptide (Fmoc solid-phase synthesis)) [Ar5M_1]	21.6 µM
LDYVNRRKMYQ (peptide designed with anchor residues R113, M115, A121, D122 and Y123 of hPD-L1; source: synthetic peptide (Fmoc solid-phase synthesis)) [Ar5M_2]	3.32 µM
